Target: αβ-tubulin (tubulin dimer; as free tubulin, Tau-induced microtubules or Taxol-stabilized microtubules) (lamb (purified from lamb brains))

Tau F4 fragment labeled with MTSL (F4^MTSL), sequence (P10636 525-641): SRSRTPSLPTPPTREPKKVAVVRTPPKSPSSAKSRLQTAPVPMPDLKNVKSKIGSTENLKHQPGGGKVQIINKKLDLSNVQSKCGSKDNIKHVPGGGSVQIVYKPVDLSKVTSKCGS

k of MTSL label release (thiol-disulfide exchange) by EPR, h(−1)/h(0) against time; Induced-MTs, 10 µM labeled protein, 1:2 with tubulin, 37 °C [min⁻¹] | k of MTSL label release (thiol-disulfide exchange) by EPR, h(−1)/h(0) against time; Taxol-MTs, 10 µM labeled protein, 1:2 with tubulin, 37 °C [min⁻¹] | k of MTSL label release (thiol-disulfide exchange) by EPR, h(−1)/h(0) against time; Tau-MTs (induced), 10 µM labeled protein, 1:2 with tubulin, 37 °C [min⁻¹] | Substance
0.217 | 0.025 |  | Tau F4 fragment labeled with MTSL (F4^MTSL) (from UniProt P10636-8 208-324) (domain or fragment)
 |  | 0.077 | Tau F4 fragment C291S mutant labeled with MTSL on C322 (C322^MTSL) (from UniProt P10636-8 208-324) (domain or fragment)
 |  | 0.127 | Tau F4 fragment C322S mutant labeled with MTSL on C291 (C291^MTSL) (from UniProt P10636-8 208-324) (domain or fragment)
